# Reference: patent US20240352134A1 (NANJING IMMUNOPHAGE BIOTECH, published 2024)
# Where a chain is given by its changes, count along the chain named.
# B1: 3F11hz3 (antibody, V domains shown)
# VH: EVQLVESGGGLVQPGGSLKLSCAASGFTFSTYAMNWVRQASGKGLEWVGRIRSKSNYYATYYADSVKDRFTISRDDSKNTAYLQMNSLKTEDTAVYYCVRGRELGDYYAMDYWGQGTLVTVSS
# VL: DIVMTQSPLSLPVTPGEPASISCRSSKSLLHSNGNTYLDWFLQKPGQSPQLLIYRMSNLASGVPDRFSGSGSGTDFTLKISRVEAEDVGVYYCMQHLEYPFTFGQGTKLEIK
# notes: Humanized variant of 3F11
# B2: 3F11hz5 (antibody, V domains shown)
# VH: B1 VH with T28S, S30N, D64A, D68G
# VL: B1 VL with D39E, F41Y, L59R
# notes: Humanized variant of 3F11
# B3: 3F11hz6 (antibody, V domains shown)
# VH: B1 VH with T28S, S30N, D64A, D68G
# VL: B1 VL with N33S, L59R
# notes: Humanized variant of 3F11
# B4: 3O20hz2 (antibody, V domains shown)
# VH: EVQLVESGGGLVQPGGSLKLSCATSGFSFNAYAMNWVRQASGKGLEWVGRIRSKSNNYATYYAASVKGRFTISRDDSKTTLYLQMNSLKTEDTAVYYCVRGGYHGNSAYFDVWGQGTLVTVSS
# VL: B1 VL with D39Y, M94L
# notes: Humanized variant of 3O20
# B5: 1G17hz3 (antibody, V domains shown)
# VH: QVQLVQSGAEVKKPGASVKVSCKASGYTFADYEMHWVRQAPGQGLEWMGAIDPETGRTAYAQKFQGRVTMTADRSTSTAYMELSSLRSEDTAVYYCTRRAYWGGWGQGTLVTVSS
# VL: DVVMTQSPLSLPVTLGQPASISCRSSQSLVHSSGNTYLHWYQQRPGQSPRLLIYKVSNRFSGVPDRFSGSGSGTDFTLKISRVEAEDVGVYFCSQSTHVPYTFGQGTKLEIK
# notes: Humanized variant of 1G17
# B6: TPP-23411 (antibody, V domains shown)
# VH: EVQLLESGGGLVQPGGSLRLSCAASGFTFSSYGMHWVRQAPGKGLEWVSAINWNGGSTGYADSVKGRFTISRDNSKNTLYLQMNSLRAEDTAVYYCARGHHSGYDGRFFDYWGQGTLVTVSS
# VL: QSVLTQPPSVSGAPGQRVTISCTGSSSNIGAGYNVHWYQQLPGTAPKLLIYTNNRRPSGVPDRFSGSKSGTSASLAISGLRSEDEADYYCAAWDASLSGWVFGGGTKLTVLG
# Assays:
# human CCR8 [1] = target: T1, human CCR8 (human, UniProt P51685 1-355); test: FACS on human CCR8-expressing 293F cells
# T1 construct: whole, on cells; also called hCCR8; C-C Motif Chemokine Receptor 8
# human CCR8 [2] = target: T1, human CCR8; test: cell-based or functional assay
# human CCR8 [3] = target: T1, human CCR8; test: FACS as in Example 2; antibody after Oxidation 24 h; ratio to T0
# human CCR8 [4] = target: T1, human CCR8; test: FACS as in Example 2; antibody after 40° C. 2 W; ratio to T0
# human CCR8 [5] = target: T1, human CCR8; test: FACS as in Example 2; antibody after Freeze/thaw 5FT; ratio to T0
# human CCR8 [6] = target: T1, human CCR8; test: FACS as in Example 2; antibody after 40° C. 1 W; ratio to T0
# human CCR8 [7] = target: T1, human CCR8; test: cell-based or functional assay; remark: listed apart in the source
# human CCR8 [8] = target: T1, human CCR8; test: FACS as in Example 2; T0 (the reference itself)
# human CCR8 [9] = target: T1, human CCR8; test: FACS on human CCR8-expressing 293F cells; remark: listed apart in the source
# human CCR8 [10] = target: T1, human CCR8; test: FACS as in Example 2; antibody after 40° C. 4 W; ratio to T0
# human CCR8 [11] = target: T1, human CCR8; test: binding affinity EC50, comparison of Table 12 (FACS on CCR8-expressing cells)
# T1 sequence (P51685 whole entry): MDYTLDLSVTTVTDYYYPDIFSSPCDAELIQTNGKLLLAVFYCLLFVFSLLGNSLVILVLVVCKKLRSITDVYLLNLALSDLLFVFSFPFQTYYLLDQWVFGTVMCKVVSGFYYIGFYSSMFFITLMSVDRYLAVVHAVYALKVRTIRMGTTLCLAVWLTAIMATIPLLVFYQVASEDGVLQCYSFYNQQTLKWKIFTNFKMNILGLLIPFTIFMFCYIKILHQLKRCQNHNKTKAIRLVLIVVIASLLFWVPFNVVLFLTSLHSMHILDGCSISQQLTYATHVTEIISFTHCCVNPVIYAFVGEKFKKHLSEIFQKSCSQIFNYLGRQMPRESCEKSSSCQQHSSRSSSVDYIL
Binder,binding result (human CCR8 [1]),Calcium mobilization IC50 (nM) Ratio; 40° C. 1 W (human CCR8 [2]),Calcium mobilization IC50 (nM) Ratio; 40° C. 2 W (human CCR8 [2]),Calcium mobilization IC50 (nM) Ratio; 40° C. 4 W (human CCR8 [2]),Calcium mobilization IC50 (nM) Ratio; Freeze/thaw 5FT (human CCR8 [2]),Calcium mobilization IC50 (nM) Ratio; Oxidation 24 h (human CCR8 [2]),Calcium mobilization IC50 (nM) Ratio; T0 (human CCR8 [2]),Affinity EC50 (nM) Ratio (human CCR8 [3]),Affinity EC50 (nM) Ratio (human CCR8 [4]),Affinity EC50 (nM) Ratio (human CCR8 [5]),Affinity EC50 (nM) Ratio (human CCR8 [6]),Calcium mobilization IC50 (human CCR8 [7]) [nM],Affinity EC50 (nM) Ratio (human CCR8 [8]),EC50 (human CCR8 [9]) [nM],Affinity EC50 (nM) Ratio (human CCR8 [10]),other results
B1,binds,–,–,–,–,–,–,–,–,–,–,–,–,–,–,–
B2,binds,–,–,–,–,–,–,–,–,–,–,–,–,–,–,–
B3,binds,–,–,–,–,–,–,–,–,–,–,–,–,–,–,–
B4,–,3.02,0.98,1.86,1.37,1.42,1,2.13,1.14,1.22,0.79,7.39,1,0.135,1.65,–
B5,–,3.07,1.38,2.35,0.32,1.14,1,1.71,1.31,2.43,0.91,25.3,1,0.47,1.1,–
B6,–,–,–,–,–,–,–,–,–,–,–,–,–,–,–,EC50 (human CCR8 [11]): 0.65 nM
